Measured values as given in US6960343B2, “Toll/interleukin-1 receptor adapter protein (TIRAP)” (Yale University School of Medicine, priority 2001, dated 2005).

Tests used:
[1] = target: T1, TLR4 (Homo sapiens, UniProt O00206); experiment: Co-immunoprecipitation with Myc-tagged TLR4 in 293T cells; type: binding; details: 293T cell lysates, anti-Flag immunoprecipitation
T1 construct: a Myc-tagged TLR4 deletion construct lacking the ectodomain (Myc TLR4 wt); Myc; expressed in transfected cells; host or cells: 293T cells
T1 sequence (O00206 653-839 limits assumed): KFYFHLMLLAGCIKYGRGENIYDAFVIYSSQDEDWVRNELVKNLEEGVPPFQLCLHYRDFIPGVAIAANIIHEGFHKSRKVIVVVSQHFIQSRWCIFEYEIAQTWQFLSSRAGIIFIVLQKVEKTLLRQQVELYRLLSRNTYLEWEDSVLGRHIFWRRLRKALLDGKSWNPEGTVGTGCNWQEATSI
From the text: Cells were transfected in the presence (+) or absence (−) of constructs encoding a wild-type portion of TLR4 (TLR4 wt), a mutant derivative thereof (TLR4 mut), wild-type TIRAP (TIRAP), a mutant TIRAP containing a P125H mutation (TIRAP PH), or wild-type MyD88 (MyD88), wherein each construct further encodes a Myc, Flag, or hemaglutanin (HA) tag, as indicated. Antibodies used for immunoprecipitation (IP) or immunoblot (IB) are indicated to the left of each blot.
To obtain biochemical conformation for a role of TIRAP in the TLR4 signaling pathway, TIRAP-TLR4 protein interactions were evaluated using co-immunoprecipitation experiments. 293T cells were co-transfected with 4.5 μg of a Myc-tagged TLR4 deletion construct lacking the ectodomain (Myc TLR4 wt) or its mutant derivative (Myc TLR4 P714H) in the presence or absence of 1.5 μg of Flag-tagged TIRAP (Flag TIRAP) or its mutant derivative containing the P125H mutation (Flag TIRAP PH). […] Immunocomplexes were washed, separated by SDS-PAGE electrophoresis, and then analyzed by immunoblotting with either anti-myc antibody to look for co-immunoprecipitated TLR4 or anti-Flag antibody to confirm immunoprecipitation of Flag TIRAP or Flag TIRAP P125H. Total cell lysates (35 μg/sample) were likewise analyzed by SDS-PAGE and immunoblotting to confirm equivalent expression of the appropriate proteins in every sample. […]

[2] = target: T2, TLR9 (Homo sapiens, UniProt Q9NR96); experiment: NF-κB activation by CpG stimulation of TLR9-transfected 293T cells; type: cell-based; details: 100 ng, 250 ng construct, CpG 3 μM
T2 construct: TLR9 (encodes full length TLR9); expressed in transfected cells; host or cells: 293T cells
T2 sequence (Q9NR96 26-1032): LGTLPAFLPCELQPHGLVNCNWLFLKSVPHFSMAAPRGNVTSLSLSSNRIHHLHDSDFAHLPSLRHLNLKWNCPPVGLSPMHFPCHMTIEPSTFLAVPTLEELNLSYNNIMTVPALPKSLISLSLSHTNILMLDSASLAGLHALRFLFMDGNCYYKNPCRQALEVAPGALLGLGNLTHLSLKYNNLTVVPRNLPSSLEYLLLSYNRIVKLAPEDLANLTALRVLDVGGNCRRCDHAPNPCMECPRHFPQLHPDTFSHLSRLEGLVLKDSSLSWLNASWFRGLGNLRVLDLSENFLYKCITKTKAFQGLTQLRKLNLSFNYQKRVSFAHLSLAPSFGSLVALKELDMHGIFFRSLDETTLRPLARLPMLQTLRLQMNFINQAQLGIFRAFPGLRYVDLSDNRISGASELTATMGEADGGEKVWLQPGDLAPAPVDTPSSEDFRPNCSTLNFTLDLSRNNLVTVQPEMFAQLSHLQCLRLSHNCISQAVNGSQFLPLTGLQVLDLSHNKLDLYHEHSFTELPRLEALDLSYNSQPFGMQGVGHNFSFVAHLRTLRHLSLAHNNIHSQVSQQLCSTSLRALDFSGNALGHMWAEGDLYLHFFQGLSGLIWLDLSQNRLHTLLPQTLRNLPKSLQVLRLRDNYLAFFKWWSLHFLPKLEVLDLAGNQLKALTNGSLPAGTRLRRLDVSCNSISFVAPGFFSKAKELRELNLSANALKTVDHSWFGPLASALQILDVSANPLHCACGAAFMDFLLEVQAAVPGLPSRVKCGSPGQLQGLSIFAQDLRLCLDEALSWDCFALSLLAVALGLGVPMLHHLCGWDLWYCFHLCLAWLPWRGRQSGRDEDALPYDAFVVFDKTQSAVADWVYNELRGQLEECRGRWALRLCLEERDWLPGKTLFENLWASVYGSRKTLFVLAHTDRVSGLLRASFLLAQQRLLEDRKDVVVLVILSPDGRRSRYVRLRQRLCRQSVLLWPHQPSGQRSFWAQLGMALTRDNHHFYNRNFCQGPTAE
Experimental: To determine whether TIRAP inhibits NF-κB activation induced by CpG-stimulation of TLR9-transfected cells, 293T cells were transfected with vector alone (pcDNA3), TLR9 (50 ng), with or without increasing concentrations (100 ng, 250 ng) of either TIRAP P125H or MyD88 DN. At twenty-four h post transfection, CpG oligonucleotides were added at 3 μM final concentration to TLR9-transfected samples and incubated for 14 more hours before harvesting. […] Thus, TIRAP appears to function downstream of TLR4 but not IL-1R or TLR9, and is likely to be the adapter in the MyD88-independent pathway downstream of TLR4.

TIRAP P125H: vector encoding a mutant form of TIRAP containing a proline to histidine mutation at amino acid position 125
co-immunoprecipitation with TLR4 [1]: filed to co-immunoprecipitate | inhibition of NF-κB activation induced by CpG-stimulation of TLR9-transfected cells [2]: did not inhibit
